Measured values reported in patent publication US20210340238A1, “TGFß1 INHIBITORS AND USE THEREOF” (Scholar Rock, Inc., priority 2018, published 2021).
“Also recorded” adds a separate entry of the source.

How the values were obtained:
Cell-associated proTGFβ1 = experiment: MSD-SET binding, cell average of hGARP and hLRRC33 complexes; design: species or system human; settings: average KD of (E) and (F), read-out: (G) Cell AVRG
Source text: (§1) Column (A) of the table provides monoclonal antibodies with discrete amino acid sequences. […] Columns (B), (C), (E) and (F) provide affinities of each of the listed antibodies, measured in KD, towards the antigen complex as indicated, respectively. […] Similarly, Average KD values calculated from (E) and (F) are shown in the corresponding column (G), which collectively represents affinities of the antibodies to cell-surface or cell-associated proTGF complexes. Finally, relative ratios between the average KD values from columns (D) and (G) are expressed as fold bias” in column (H). Thus, the greater the numerical of column (H) is, the greater bias exists for the particular antibody, when comparing binding preferences of the antibody for matrix-associated complexes to cell-surface complexes. This is one way of quantitatively representing and comparing inherent bias of antibodies to their target complexes. Such analyses may be useful in guiding the selection process for a candidate antibody for particular therapeutic use. Select antibodies of the present disclosure, as measured by MSD-SET, show context-bias (i.e., greater than five-fold bias) or unbias (i.e., less than 5-fold bias) toward matrix-associated complexes over cell-associated complexes. […] Without being bound by a particular theory, the differences in the kinetics of the assays and/or differences in the nature of recombinant proteins may account for the noticeable differences seen in Ab19 binding to hGARP complexes observed in the above Octet assay (see Table 6) compared to the below MSD-SET assay (see Table 7 below). For example, the Octet assay measures kinetic on and off rates, while the MSD-SET assay measures binding at equilibrium. In addition, the recombinant antibodies used in the Octet assay were expressed as IgG1 antibodies in yeast, while the antibodies used in the MSD assay were expressed as IgG4 antibodies in mammalian cells.

[1] = tested on: liver fibrosis (pSmad2/3, hydroxyproline, type I collagen); settings: CDHFD mice, weeks 4-12
Source text: The Choline deficient high fat diet (CDHFD) is an established dietary model of Non-Alcoholic steatohepatitis (NASH). In this model, male C57BL/6J mice are fed a choline deficient, 0.1% Methionine, high fat diet for 12 weeks. Three to six weeks after the start of the CDHFD, expression of α-sma protein (a marker for activation of hepatic stellate cells) increases and the development of hepatic fibrosis is accompanied by an increase in the hydroxyproline content accompanied by a rise in intrahepatic collagen synthesis and deposition (Matsumoto et. al, Int J Exp Pathol. 2013 April; 94(2):93-103).
Animals in the test cohorts were on the CDHFD for the duration of the study. A separate cohort of mice were administered a regular chow diet as a study control. […] Antibody test concentrations were as follows: 15 mg/kg, 5 mg/kg or 1.5 mg/kg twice a week (i.e., 30, 10, or 3 mg/kg/week) for a test duration of 8 weeks (i.e., weeks 4 thru 12). An IgG isotype antibody was used as a negative control at 15 mg/kg twice weekly (30 mg/kg/week). Following 8 weeks of dosing, animals were sacrificed and livers collected for analyses.
Serum measurements were also taken to determine the extent of antibody exposure during the study.
TGFβ1 receptor engagement leads to intracellular signaling events including the phosphorylation of Smad2 and Smad3.
Hydroxyproline is a signature amino acid for fibrillar collagens and comprises approximately 13.5% of the protein. […] Hydroxyproline acts as an important diagnostic indicator of the severity of fibrosis.
To assess the levels of type 1 collagen deposition in livers from CDHFD-treated mice, immunohistochemistry (IHC) protocols were developed for anti-mouse type I collagen antibody (rabbit polyclonal; Abcam; ab21286) using the Leica Bond RX staining system. Mouse liver was collected and fixed in 10% neutral buffered formalin (NBF) for 24 hours at room temperature. Fixed livers were then trimmed into 3-5 mm cross sections and stored in 70% ethanol until processed for paraffin infiltration and embedding. Paraffin embedded livers were sectioned at 4 μm and mounted on slides for IHC staining. Type 1 collagen primary antibody was used at a 5 μg/mL final concentration along with a matched isotype primary control (rabbit monoclonal IgG; Cell Signaling Technologies; 3900S). Epitope retrieval was performed with a pH 6 citrate buffer incubated at 100° C. for 20 minutes. […]
Stained slides were sent to HistoTox Labs for imaging with an Aperio AT2 whole slide scanner and collagen staining was analyzed using Visiopharm image analysis software. […] Total collagen positive area was measured using an intensity-based thresholding algorithm which classified each pixel of the image as high positive, medium positive, low positive, or negative staining area.

MBT2 tumors = experiment: MBT2 syngeneic bladder cancer mouse model, combination with anti-PD-1; type: in vivo; settings: Ab3 10 and 30 mg/kg, Ab2 3 and 10 mg/kg, in combination with anti-PD-1
Source text: This is a very aggressive and fast-growing tumor model, and is very difficult to overcome tumor progression with drug treatment.
Treatment with isotype control was used as a control group (data not shown).
Percent tumor growth delay (% TGD) is defined as the increase in the median time to endpoint in a treatment group compared to the untreated control, expressed as a percentage of the median time to endpoint (TTE) of the control:
T=median TTE for treatment

[2] = tested on: fibrosis-associated genes (Col1a1, Col3a1, Fn1, Lox, Lox/2, Acta2, Mmp2, Itga11); experiment: Unilateral ureteral obstruction (UUO) model of acute kidney fibrosis, qPCR of fibrosis-associated genes; type: in vivo, mouse; settings: i.p. days −1 and 4, kidney qPCR day 5
Description: Inhibition of acute fibrosis by anti-TGFβ1 antibodies was tested in the unilateral ureteral obstruction (UUO) model of acute kidney fibrosis. In this model, fibrosis is induced in male mice by permanent surgical ligation of the left ureter on study day 0.
Kidneys were collected at the end of study, on day 5 after surgery, and RNA was harvested from these tissues. The degree of fibrosis induction was subsequently assessed by quantitative polymerase chain reaction (qPCR) for a panel of fibrosis-associated genes, including Collagen I (Col1a1), Collagen III (Col3a1), Fibronectin 1 (Fn1), Lysyl Oxidase (Lox), Lysyl Oxidase-like 2 (Lox/2), Smooth muscle actin (Acta2), Matrix metalloprotease (Mmp2), and Integrin alpha 11 (Itga11) (Rolfe, Irvine, Grobbelaar, & Linge, 2007) (Tamaki et al., 1994) (Bansal et al., 2017)(Leaf& Duffield, 2016).

[3] = Effective dose and therapeutic window across preclinical models (summary); type: in vivo
Source text: Effective amount: An “effective amount” (or therapeutically effective amount, or therapeutic dose) is a dosage, concentration, or dosing regimen that achieves statistically significant clinical benefits (e.g., efficacy) in a patient population.
Therapeutic window: The term “therapeutic window” refers to a range of doses/concentrations that produces therapeutic response without causing significant/observable/unacceptable adverse effect (e.g., within adverse effects that are acceptable or tolerable) in subjects. Therapeutic window may be calculated as a ratio between minimum effective concentrations (MEC) to the minimum toxic concentrations (MTC).

[4] = tested on: Matrix-associated proTGFβ1 vs Cell-associated proTGFβ1; experiment: MSD-SET binding, matrix vs cell bias (G/D); design: species or system human; settings: ratio of cell average KD to ECM average KD
Source text: as §1

CloudmanS91 tumors = experiment: CloudmanS91 melanoma mouse model, combination with anti-PD-1; type: in vivo; settings: 10 mg/kg and 30 mg/kg i.p. weekly, in combination with anti-PD1
Description: Clone M3 [Cloudman S91 melanoma] (ATCC® CCL-53.1™) cells were obtained from the American Type Culture Collection (ATCC), and were maintained at CR Discovery Services as exponentially growing suspension cultures in Kaighn's modified Ham's F12 Medium supplemented with 2.5% fetal bovine serum, 15% horse serum, 2 mM glutamine, 100 units/mL penicillin G sodium, 100 μg/mL streptomycin sulfate and 25 μg/mL gentamicin. The tumor cells were grown in tissue culture flasks in a humidified incubator at 37° C., in an atmosphere of 5% CO2 and 95% air.
An untreated control was used, data not shown.

[5] = target: Matrix-associated proTGFβ1; experiment: Octet binding, ECM average of hLTBP1 and hLTBP3 complexes; design: species or system human; settings: average KD of (B) and (C), read-out: (D) ECM AVRG
Source text: Column (A) of the table provides monoclonal antibodies with discrete amino acid sequences. […] Columns (B), (C), (E) and (F) provide affinities of each of the listed antibodies, measured in KD, towards the antigen complex as indicated, respectively. […] Average KD values calculated from (B) and (C) are shown in the corresponding column (D), which collectively represents affinities of the antibodies to ECM- or matrix-associated proTGFβ1 complexes. Similarly, Average KD values calculated from (E) and (F) are shown in the corresponding column (G), which collectively represents affinities of the antibodies to cell-surface or cell-associated proTGF complexes. Finally, relative ratios between the average KD values from columns (D) and (G) are expressed as fold bias” in column (H). Thus, the greater the numerical of column (H) is, the greater bias exists for the particular antibody, when comparing binding preferences of the antibody for matrix-associated complexes to cell-surface complexes. This is one way of quantitatively representing and comparing inherent bias of antibodies to their target complexes. Such analyses may be useful in guiding the selection process for a candidate antibody for particular therapeutic use.

[6] = tested on: liver fibrosis (liver hydroxyproline); experiment: CCl4 model of liver fibrosis; type: in vivo, mouse; settings: CCl4 mice, 4 weeks
Description: Carbon tetrachloride (CCl4) treatment of mice is a well-characterized model of liver fibrosis. In this model, Balb/C mice were dosed intraperitoneally (i.p.) twice weekly with 2.5 μl of a 20% CCl4 solution in corn oil per gram bodyweight. This CCl4 dosing was maintained throughout the duration of the study(6 weeks). After two weeks of CCl4 dosing, dosing with test articles started. […] After 6 weeks of CCl4 dosing (4 weeks of antibody treatment), mice were sacrificed and liver tissue was collected.
The hydroxyproline assay (see description above) was used to measure fibrosis in liver lysates from this study. […] The treatment effect of both TGFβ1-specific antibodies was similar to that of the pan-TGFβ inhibitor 1D11.

B1: Ab2: isoform-selective inhibitor of TGFβ1 activation; VH SEQ ID NO: 13, VL SEQ ID NO: 15; human IgG4 (antibody, V domains shown)
VH: EVQLLESGGGLVQPGGSLRLSCAASGFTFADYAMTWVRQAPGKGLEWVSAISGSGAATYFADSVKGRFTISRDNSKNTLYLQMNSLRAEDTAVYYCARVSSGHWDFDYWGQGTLVTVSS
VL: DIQLTQSPSSLSASVGDRVTITCRASQSISSYLNWYQQKPGKAPKLLIYAASNLQSGVPSRFSGSGSGTDFTLTISSLQPEDFATYYCQQTYTVPLTFGGGTKVEIK
modifications: human IgG4 constant regions
In the case of B1, the Kd (Cell-associated proTGFβ1) is reported as 2.3 nM, the “Relative ratio of phosphorylated Smad2/3 in liver lysates (ELISA)” value ([1]; 15, 5 or 1.5 mg/kg i.p. twice a week) is reported as “significantly reduced the relative ratio of phosphorylated Smad2/3 compared to IgG control; also recorded: inverse correlation between serum levels of Ab2 and phosphorylated Smad2/3; also recorded: significantly reduces phosphorylation of Smad2/3 as compared to Ab3 and IgG treated mice on CDHFD” and the “Liver fibrosis as measured by hydroxyproline levels” value ([1]; i.p. twice a week, vs IgG control) is reported as “marked reduction in collagen deposition”. For the same molecule, the “Tumor growth compared to PD-1 alone” value (MBT2 tumors) was “delayed tumor growth”, the “Fibrosis-associated gene expression in UUO kidney vs UUO+IgG” value ([2]; 3 mg/kg/wk) was “trend towards reduced Col3a1 expression, though this effect does not reach statistical significance; also recorded: reduction of both Fn1 and, particularly, Lox/2 (P=0.06), though suppression of neither gene is statistically significant; also recorded: Col1a1 and Lox expression were also reduced” and the “Fibrosis-associated gene expression in UUO kidney vs UUO+IgG” value ([2]; 10 mg/kg/wk) was “suppressed fibrotic gene induction by UUO; also recorded: highly significant (P<0.005 vs UUO+IgG) inhibition of both Fn1 and Lox/2; also recorded: all genes examined except Mmp2 showed a statistically significant change in expression”. For the same molecule, the Effective amount [3] was 3 to 30 mg/kg, the “(H) G/D (fold bias)” value [4] was 8.66 fold and the “Tumor growth (median tumor progression)” value (CloudmanS91 tumors) was “delayed tumor growth”. For the same molecule, the Kd [5] was 0.157 nM, the Liver hydroxyproline ([6]; high dose 15 mg/kg i.p. twice weekly) was “statistically significant reduction in liver hydroxyproline” and the Liver hydroxyproline ([6]; lower doses 5 or 1.5 mg/kg i.p. twice weekly) was “trend towards reduced liver hydroxyproline, but these differences are not statistically significant”.
